Experimental data taken from publication PMC3098871, “High Throughput Determination of TGFβ1/SMAD3 Targets in A549 Lung Epithelial Cells”.

Biological target: SMAD3 (UniProt P84022 1-425)
Assay: EMSA; poly(dI-dC) 0.25 mg/mL; two complexes, partially abolished by unlabeled probe (40 and 200 ng); 20% glycerol, 5 mM MgCl2, 2.5 mM EDTA, 25 mM DTT, 200 mM NaCl, 50 mM Tris-HCl pH 7.6, 0.25 mg/mL poly(dI-dC), 20 min at room temperature; 6% native PAGE
Settings: protein: commercial; label: 5'-Cy5 on strand 1; blunt

Chain of SMAD3 (P84022 whole entry): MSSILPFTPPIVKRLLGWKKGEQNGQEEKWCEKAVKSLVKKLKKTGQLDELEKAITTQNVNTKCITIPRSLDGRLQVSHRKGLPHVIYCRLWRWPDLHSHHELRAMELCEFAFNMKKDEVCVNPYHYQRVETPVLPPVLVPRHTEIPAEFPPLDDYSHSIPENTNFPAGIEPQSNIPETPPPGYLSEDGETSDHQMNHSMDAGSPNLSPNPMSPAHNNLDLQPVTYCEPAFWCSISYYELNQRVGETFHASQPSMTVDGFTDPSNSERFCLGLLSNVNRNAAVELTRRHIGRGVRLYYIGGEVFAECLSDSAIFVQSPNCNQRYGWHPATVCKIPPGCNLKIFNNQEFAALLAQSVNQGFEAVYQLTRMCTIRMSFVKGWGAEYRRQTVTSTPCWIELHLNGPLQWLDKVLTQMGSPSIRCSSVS

B1: FOXA2 promoter probe (-42 to -19) (dsDNA)
DNA 1: GATTGCTGGTCGTTTGTTGTGGCT
DNA 2: AGCCACAACAAACGACCAGCAATC
B1: binds.
